Series [1] concerns HeLa Kyoto. Description: melting temperature (median over replicates), in situ; higher = more thermally stable.
Series [2] relates to HeLa Kyoto. Description: solubility in G1/S (NP-40 vs SDS abundance) (log2 ratio); higher = more soluble. The conditions noted are these: cell cycle stage: G1/S.
For series [3], the system named is HeLa Kyoto. Description: thermal stability score vs G1/S (z-score of summed log2 fold changes over temperatures); higher = more thermally stable than in G1/S.
Series [4] deals with HeLa Kyoto. Description: solubility change mitosis vs G1/S (difference of NP-40 vs SDS log2 ratios) (log2 ratio difference); higher = more soluble in mitosis.
Setting [5] is: cell cycle stage: early G1 (4.5 h after nocodazole release).
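Wherever melting temperature (median over replicates), in situ is given: HeLa Kyoto cells synchronized by double thymidine or nocodazole block, proteins quantified by TMT10plex mass spectrometry, three independent biological replicates.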
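Wherever solubility change mitosis vs G1/S (difference of NP-40 vs SDS log2 ratios) is given: synchronized HeLa Kyoto cells (double thymidine block for G1/S, nocodazole release for mitosis), protein amounts in NP-40 versus SDS lysates quantified by mass spectrometry, three biological replicates.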
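Wherever solubility in G1/S (NP-40 vs SDS abundance) is given: HeLa Kyoto cells arrested at G1/S by double thymidine block, proteins quantified by TMT10plex mass spectrometry in mild NP-40 versus SDS extracts, three biological replicates.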
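Wherever thermal stability score vs G1/S (z-score of summed log2 fold changes over temperatures) is given: synchronized HeLa Kyoto cells, proteins quantified by TMT10plex mass spectrometry, three biological replicates, mitosis taken 0.5 h after nocodazole release, G1/S directly after double thymidine block.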

As for “MSRIESLTRARIDRSRELASKTREKEKMKEAKDARYTNGHLFTTISVSGMTMCYACNKSITAKEALICPTCNVTIHNRCKDTLANCTKVKQKQQKAALLKNNTALQSVSLRSKTTIRERPSSAIYPSDSFRQSLLGSRRGRSSLSLAKSVSTTNIAGHFNDESPLGLRRILSQSTDSLNMRNRTLSVESLIDEAEVIYSELMSDFEMDEKDFAADSWSLAVDSSFLQQHKKEVMKQQDVIYELIQTELHHVRTLKIMTRLFRTGMLEELHLEPGVVQGLFPCVDELSDIHTRFLSQLLERRRQALCPGSTRNFVIHRLGDLLISQFSGPSAEQMCKTYSEFCSRHSKALKLYKELYARDKRFQQFIRKVTRPAVLKRHGVQECILLVTQRITKYPLLISRILQHSHGIEEERQDLTTALGLVKELLSNVDEGIYQLEKGARLQEIYNRMDPRAQTPVPGKGPFGREELLRRKLIHDGCLLWKTATGRFKDVLVLLMTDVLVFLQEKDQKYIFPTLDKPSVVSLQNLIVRDIANQEKGMFLISAAPPEMYEVHTASRDDRSTWIRVIQQSVRTCPSREDFPLIETEDEAYLRRIKMELQQKDRALVELLREKVGLFAEMTHFQAEEDGGSGMALPTLPRGLFRSESLESPRGERLLQDAIREVEGLKDLLVGPGVELLLTPREPALPLEPDSGGNTSPGVTANGEARTFNGSIELCRADSDSSQRDRNGNQLRSPQEEALQRLVNLYGLLHGLQAAVAQQDTLMEARFPEGPERREKLCRANSRDGEAGRAGAAPVAPEKQATELALLQRQHALLQEELRRCRRLGEERATEAGSLEARLRESEQARALLEREAEEARRQLAALGQTEPLPAEAPWARRPVDPRRRSLPAGDALYLSFNPPQPSRGTDRLDLPVTTRSVHRNFEDRERQELGSPEERLQDSSDPDTGSEEEGSSRLSPPHSPRDFTRMQDIPEETESRDGEAVASES [ARHGEF2]”, the melting temperature in the series with HeLa Kyoto [1] (cell cycle stage: G1/S) and in the series on HeLa Kyoto [1] (cell cycle stage: mitosis) was 48.4 °C each time. In the series with HeLa Kyoto [2], the “solubility in G1/S (log2)” value is -0.137. Also, the thermal stability score in the series with HeLa Kyoto [3] (setting [5]) is 0.217; with HeLa Kyoto [3] (cell cycle stage: mitosis) it was 2.08. Also, the “solubility change mitosis (log2)” value with HeLa Kyoto [4] was -0.0226.

With “MSRKGPRAEVCADCSAPDPGWASISRGVLVCDECCSVHRSLGRHISIVKHLRHSAWPPTLLQMVHTLASNGANSIWEHSLLDPAQVQSGRRKANPQDKVHPIKSEFIRAKYQMLAFVHKLPCRDDDGVTAKDLSKQLHSSVRTGNLETCLRLLSLGAQANFFHPEKGTTPLHVAAKAGQTLQAELLVVYGADPGSPDVNGRTPIDYARQAGHHELAERLVECQYELTDRLAFYLCGRKPDHKNGHYIIPQMADSLDLSELAKAAKKKLQALSNRLFEELAMDVYDEVDRRENDAVWLATQNHSTLVTERSAVPFLPVNPEYSATRNQGRQKLARFNAREFATLIIDILSEAKRRQQGKSLSSPTDNLELSLRSQSDLDDQHDYDSVASDEDTDQEPLRSTGATRSNRARSMDSSDLSDGAVTLQEYLELKKALATSEAKVQQLMKVNSSLSDELRRLQREIHKLQAENLQLRQPPGPVPTPPLPSERAEHTPMAPGGSTHRRDRQAFSMYEPGSALKPFGGPPGDELTTRLQPFHSTELEDDAIYSVHVPAGLYRIRKGVSASAVPFTPSSPLLSCSQEGSRHTSKLSRHGSGADSDYENTQSGDPLLGLEGKRFLELGKEEDFHPELESLDGDLDPGLPSTEDVILKTEQVTKNIQELLRAAQEFKHDSFVPCSEKIHLAVTEMASLFPKRPALEPVRSSLRLLNASAYRLQSECRKTVPPEPGAPVDFQLLTQQVIQCAYDIAKAAKQLVTITTREKKQ [GIT1]”, the figures for the melting temperature in the series with HeLa Kyoto [1] (cell cycle stage: G1/S) and with HeLa Kyoto [1] (cell cycle stage: mitosis) were 48.4 °C and 50 °C, respectively. Besides, the “solubility in G1/S (log2)” value with HeLa Kyoto [2] worked out at 0.235. The thermal stability score with HeLa Kyoto [3] (setting [5]) is 0.709; in the series on HeLa Kyoto [3] (cell cycle stage: mitosis) it was 0.998. Besides, the “solubility change mitosis (log2)” value in the series on HeLa Kyoto [4] is -0.123.

Turning to “MSRPLITRSPASPLNNQGIPTPAQLTKSNAPVHIDVGGHMYTSSLATLTKYPESRIGRLFDGTEPIVLDSLKQHYFIDRDGQMFRYILNFLRTSKLLIPDDFKDYTLLYEEAKYFQLQPMLLEMERWKQDRETGRFSRPCECLVVRVAPDLGERITLSGDKSLIEEVFPEIGDVMCNSVNAGWNHDSTHVIRFPLNGYCHLNSVQVLERLQQRGFEIVGSCGGGVDSSQFSEYVLRRELRRTPRVPSVIRIKQEPLD [KCTD1]”, the melting temperature with HeLa Kyoto [1] (cell cycle stage: G1/S) came to 58.7 °C; in the series on HeLa Kyoto [1] (cell cycle stage: mitosis) it was 55.9 °C. Also, the “solubility in G1/S (log2)” value with HeLa Kyoto [2] amounted to 0.464. For the same sequence, the thermal stability score with HeLa Kyoto [3] (setting [5]) came to 0.414; in the series on HeLa Kyoto [3] (cell cycle stage: mitosis), 0.162. The “solubility change mitosis (log2)” value with HeLa Kyoto [4] is -0.267.

For “MSRPRKRLAGTSGSDKGLSGKRTKTENSGEALAKVEDSNPQKTSATKNCLKNLSSHWLMKSEPESRLEKGVDVKFSIEDLKAQPKQTTCWDGVRNYQARNFLRAMKLGEEAFFYHSNCKEPGIAGLMKIVKEAYPDHTQFEKNNPHYDPSSKEDNPKWSMVDVQFVRMMKRFIPLAELKSYHQAHKATGGPLKNMVLFTRQRLSIQPLTQEEFDFVLSLEEKEPS [THYN1]”, the melting temperature in the series on HeLa Kyoto [1] (cell cycle stage: G1/S) was 47.3 °C; in the series with HeLa Kyoto [1] (cell cycle stage: mitosis) it was 51.3 °C. Besides, in the series on HeLa Kyoto [2], the “solubility in G1/S (log2)” value was 0.389. For the same sequence, the figures for the thermal stability score with HeLa Kyoto [3] (setting [5]) and in the series with HeLa Kyoto [3] (cell cycle stage: mitosis) were -1.19 and -1.36, respectively. In the series on HeLa Kyoto [4], the “solubility change mitosis (log2)” value stood at 0.199.

Take “MSRPSSVSPRQPAPGGGGGGGPSPCGPGGGGRAKGLKDIRIDEEVKIAVNIALERFRYGDQREMEFPSSLTSTERAFIHRLSQSLGLVSKSKGKGANRYLTVKKKDGSETAHAMMTCNLTHNTKHAVRSLIQRFPVTNKERTELLPKTERGNVFAVEAENREMSKTSGRLNNGIPQIPVKRGESEFDSFRQSLPVFEKQEEIVKIIKENKVVLIVGETGSGKTTQIPQFLLDDCFKNGIPCRIFCTQPRRLAAIAVAERVAAERRERIGQTIGYQIRLESRVSPKTLLTFCTNGVLLRTLMAGDSTLSTVTHVIVDEVHERDRFSDFLLTKLRDLLQKHPTLKLILSSAALDVNLFIRYFGSCPVIYIQGRPFEVKEMFLEDILRTTGYTNKEMLKYKKEKQQEEKQQTTLTEWYSAQENSFKPESQRQRTVLNVTDEYDLLDDGGDAVFSQLTEKDVNCLEPWLIKEMDACLSDIWLHKDIDAFAQVFHLILTENVSVDYRHSETSATALMVAAGRGFASQVEQLISMGANVHSKASNGWMALDWAKHFGQTEIVDLLESYSATLEFGNLDESSLVQTNGSDLSAEDRELLKAYHHSFDDEKVDLDLIMHLLYNICHSCDAGAVLIFLPGYDEIVGLRDRILFDDKRFADSTHRYQVFMLHSNMQTSDQKKVLKNPPAGVRKIILSTNIAETSITVNDVVFVIDSGKVKEKSFDALNFVTMLKMVWISKASAIQRKGRAGRCRPGICFRLFSRLRFQNMLEFQTPELLRMPLQELCLHTKLLAPVNCPIADFLMKAPEPPPALIVRNAVQMLKTIDAMDTWEDLTELGYHLADLPVEPHLGKMVLCAVVLKCLDPILTIACTLAYRDPFVLPTQASQKRAAMLCRKRFTAGAFSDHMALLRAFQAWQKARSDGWERAFCEKNFLSQATMEIIIGMRTQLLGQLRASGFVRARGGGDIRDVNTNSENWAVVKAALVAGMYPNLVHVDRENLVLTGPKEKKVRFHPASVLSQPQYKKIPPANGQAAAIKALPTDWLIYDEMTRAHRIANIRCCSAVTPVTILVFCGPARLASNALQEPSSFRVDGIPNDSSDSEMEDKTTANLAALKLDEWLHFTLEPEAASLLLQLRQKWHSLFLRRMRAPSKPWSQVDEATIRAIIAVLSTEEQSAGLQQPSGIGQRPRPMSSEELPLASSWRSNNSRKSSADTEFSDECTTAERVLMKSPSPALHPPQKYKDRGILHPKRGTEDRSDQSSLKSTDSSSYPSPCASPSPPSSGKGSKSPSPRPNMPVRYFIMKSSNLRNLEISQQKGIWSTTPSNERKLNRAFWESSIVYLVFSVQGSGHFQGFSRMSSEIGREKSQDWGSAGLGGVFKVEWIRKESLPFQFAHHLLNPWNDNKKVQISRDGQELEPLVGEQLLQLWERLPLGEKNTTD [YTHDC2]”: the melting temperature in the series with HeLa Kyoto [1] (cell cycle stage: G1/S) is 50.2 °C; in the series with HeLa Kyoto [1] (cell cycle stage: mitosis) it was 50 °C. Also, the “solubility in G1/S (log2)” value in the series on HeLa Kyoto [2] was -0.57. Also, the thermal stability score with HeLa Kyoto [3] (setting [5]) is -0.356; with HeLa Kyoto [3] (cell cycle stage: mitosis), 0.243. For the same sequence, the “solubility change mitosis (log2)” value in the series with HeLa Kyoto [4] amounted to 0.163.

For the origin of these results see the supplement of paper PMC5998384.
